The source of these data is patent publication US7341836B2, “Modified cyclic nucleotide gated ion channels” (The Regents of the University of Colorado, priority 2001, dated 2008).

Where “and” joins values, the source holds several entries; their conditions need not be identical. Equal values may be shown once.

The subject of one experiment is PDE III. The note with it: cited from earlier work.
The target of a further experiment is T1, PDE II (Homo sapiens, UniProt O00408).
T1 construct: host or cells: heterologously expressed human PDE; human heart
T1 sequence (O00408 whole entry): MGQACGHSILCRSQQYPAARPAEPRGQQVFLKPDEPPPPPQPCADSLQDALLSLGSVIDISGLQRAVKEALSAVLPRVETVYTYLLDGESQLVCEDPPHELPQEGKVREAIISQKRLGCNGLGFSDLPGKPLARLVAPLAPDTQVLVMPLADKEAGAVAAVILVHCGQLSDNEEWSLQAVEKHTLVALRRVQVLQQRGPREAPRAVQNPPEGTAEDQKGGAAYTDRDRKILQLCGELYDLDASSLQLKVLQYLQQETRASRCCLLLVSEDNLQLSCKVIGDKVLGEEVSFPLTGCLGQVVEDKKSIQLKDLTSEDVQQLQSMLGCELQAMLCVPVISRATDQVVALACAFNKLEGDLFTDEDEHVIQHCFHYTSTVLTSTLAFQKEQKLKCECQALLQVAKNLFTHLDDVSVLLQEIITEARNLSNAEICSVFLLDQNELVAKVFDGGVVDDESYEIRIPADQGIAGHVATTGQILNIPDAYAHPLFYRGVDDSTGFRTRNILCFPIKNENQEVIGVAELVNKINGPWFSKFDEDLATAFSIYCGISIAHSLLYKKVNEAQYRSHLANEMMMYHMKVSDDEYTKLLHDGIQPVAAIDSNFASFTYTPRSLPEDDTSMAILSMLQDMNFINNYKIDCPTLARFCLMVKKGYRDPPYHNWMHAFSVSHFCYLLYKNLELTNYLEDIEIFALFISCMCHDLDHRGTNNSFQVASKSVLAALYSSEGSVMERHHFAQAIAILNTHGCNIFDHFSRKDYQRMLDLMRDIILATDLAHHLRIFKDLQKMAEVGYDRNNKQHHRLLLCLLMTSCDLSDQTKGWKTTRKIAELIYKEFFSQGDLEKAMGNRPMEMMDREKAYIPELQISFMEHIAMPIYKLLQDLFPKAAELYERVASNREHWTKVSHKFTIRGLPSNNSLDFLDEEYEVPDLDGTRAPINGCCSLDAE
The note with it: read-out: IC50, PDE II; cited from earlier work.

The subject of experiment [1] is PDE activity in GH4C1 cells. The experiment in a line: Effect of PDE inhibitors, forskolin and VIP on cAMP levels (Ca2+ influx through CNG channels). It is filed as cell-based, rat. The note with it: basal cAMP; C460W/E583M channels; inhibitor concentration (μM). How it is done:
To further test the utility of this approach, PDE activity in excitable GH4C1 pituitary cells was examined. In all of the experiments shown (See, FIGS. 13-14, and Table 2), 1 μM nimodipine was added at time zero to block Ca^2+ influx though voltage-gated Ca^2+ channels (triggered by membrane depolarization due to Ca^2+ and Na^+ influx through CNG channels). […] FIGS. 13 and 14 each depict experiments done on a single batch of cells. As before, similar results were obtained on three other batches. In the experiments that produced the data shown in Table 2, cAMP concentrations were monitored using Ca^2+ influx through C460W/E583M channels. […] Either 100 μM IBMX or vehicle (-IBMX; control) were added at time zero. Then, 50 μM forskolin were added at 180 seconds d(ΔF/F0)/dt, which is proportional to the Ca^2+ influx rate, was estimated as described in the Examples. Data are provided as mean±standard error. IBMX or vehicle was added at 60 seconds (first arrow in FIG. 13). Either 10 μM forskolin or 100 nM VIP were added at 240 seconds (second arrow in FIG. 13). In the absence of IBMX, large forskolin or VIP-induced increases in Ca^2+ influx were observed. […] This level of basal AC activity was quite different from that observed in HEK-293 cells (See, FIGS. 9 and 10). 1 μM nimodipine was added at time 0 to block endogenous voltage-gated Ca^2+ channels.
To identify the PDE family or families that regulate the local cAMP concentration in GH4C1 cells, cAMP accumulation was monitored in the presence and absence of PDE inhibitors (See, Table 2). Again, the high cAMP affinity C460W/E583M channels were used. PDE inhibitors were added at 60 s. Although the addition of IBMX alone triggered Ca^2+ influx, 10 μM forskolin were added at 240 s as a positive control for CNG channel activity. […] This PDE is likely to have a low Km for cAMP because it is capable of regulating cAMP at concentrations too low for the WT or Δ61-90/C460W/E583M channels to detect. Thus, it is contemplated that a Ca^2+-CaM stimulated PDE (type I) is primarily responsible for controlling basal cAMP signals in GH4C1 cells.
In addition, PDE activity was monitored using Δ61-90/C460W/E583M channels to detect changes in cAMP concentration (See, FIG. 14). PDE inhibitors and forskolin were added as described above. With this construct, it was not possible to observe changes in cAMP concentration due to inhibition of PDE activity alone. […] Inhibitors specific to other PDE types had no effect on the forskolin-induced Ca^2+ influx (data not shown). […] It is contemplated that Ca^2+ influx through the C460W/E583M channels was saturated at cAMP concentrations below the Km for this PDE. Thus, it is contemplated that there are two different PDE types that regulate local cAMP signals in GH4C1 cells: a low Km, 8-methoxymethyl-IBMX sensitive PDE (type I); and a high Km, RO-20-1724-, rolipram-sensitive PDE (type IV).
GH4C1 rat pituitary cells (ATCC) were maintained in 13 mL Ham's F-10 medium (Life Technologies) supplemented with 14.3 mM NaHCO3, 15% donor horse serum (Gemini), and 2.5% fetal bovine serum, pH 6.8, in 75 cm^2 flasks at 37° C. in a humidified atmosphere of 95% air and 5% CO2. Cells were split weekly (1:4) and washed with fresh medium twice weekly. Cells were plated at ˜60% confluence in 100 mm culture dishes twenty-four hours prior to infection with the CNG-channel-encoding adenovirus constructs (multiplicity of infection=50 plaque forming units per cell). Forty-eight hours post-infection cells were detached, resuspended in serum-containing medium, and assayed within 12 hours.
In this Example, experiments conducted to examine the response of excitable GH4C1 pituitary cells to stimulation by either forskolin or the hormone vasoactive intestinal peptide (VIP), in the presence of absence of PDE inhibitors are described. […]

Experiment [2] relates to HEK-293 cells expressing CNG channels. The experiment in a line: Forskolin-induced cAMP accumulation monitored by Ca2+ influx (fura-2) through expressed CNG channels. The note with it: 100 μM IBMX; forskolin 0-50 μM. It is filed as cell-based, human. How it is done:
Next, experiments were conducted to assess the ability of each channel construct to detect increases in local cAMP concentration. Changes in cAMP concentration were detected using fura-2 to monitor Ca^2+ influx through CNG channels, as described in the Examples. Ca^2+ influx induced by different concentrations of forskolin, an AC activator, in the presence of 100 μM IBMX, a nonselective PDE inhibitor was measured. This approach allowed comparisons to be made between the cAMP sensitivities of the different channels to changes in cAMP, regardless of variations in expression levels between experiments. In HEK-293 cells expressing the WT channel, addition of forskolin was followed by a brief delay and an increase in Ca^2+ influx (See, FIG. 7, Panel A). The delay decreased and the rate of Ca^2+ influx increased in a dose-dependent manner. Neither effect was saturated at 50 μM forskolin. In cells expressing the E583M channel, addition of forskolin was also followed by a brief delay and an increase in Ca^2+ influx (FIG. 7, Panel B). As with the WT channel, the delay and the initial rate of Ca^2+ influx were dose-dependent. […] In cells expressing the Δ61-90/C460W/E583M channel, addition of forskolin caused similar increases in Ca^2+ influx as the E583M channel, including saturation of the delay and rate of influx at 20 μM (compare FIG. 7, Panel B with FIG. 7, Panel D). The increased response of the modified channels to forskolin treatment is consistent with the apparent cAMP affinities measured in excised patches in the absence of Ca^2+-CaM (C460W/E583M>E583M˜Δ61-90/C460W/E583>WT channels). There are several factors that may have contributed to the apparent lack of a Ca^2+-CaM effect on the channels.
Briefly, HEK-293 were maintained in MEM (Life Technologies Inc.) supplemented with 26.2 mM NaHCO3, 10% (v/v) fetal bovine serum (Gemini), penicillin (50 μg/mL), and streptomycin ([…]), pH 7.0, at 37° C. in a humidified atmosphere of 95% air and 5% CO2. Cells were plated at ˜60% confluence in 100 mm culture dishes twenty-four hours prior to infection with the CNG-channel-encoding adenovirus constructs (multiplicity of infection=10 plaque forming units per cell). […] Twenty-four hours post-infection cells were detached with phosphate-buffered saline containing 0.03% EDTA, resuspended in serum-containing medium, and assayed within 12 hours.
(In general: Changes in cAMP serve as a functional read-out for many G protein-coupled receptors.)

The test system of experiment [3] is rat olfactory CNG channel α subunit. In words: Excised inside-out patch recordings, cyclic nucleotide dose-response of CNG channel constructs. It counts as biochemical. The note with it: for Imax^cGMP/Imax^cAMP: current at saturating cGMP divided by current at saturating cAMP. As to the method:
As described in greater detail herein, the effects of modifications to CNG channels were assessed using the Hill equation, I/Imax=[cNMP]^N/([cNMP]^N+K1/2^N), where I/Imax is the fraction of maximal current, cNMP represents cyclic nucleotide, K1/2 is the concentration that gives half-maximal current, and N is the Hill coefficient, an index of cooperativity. I/Imax^cGMP/Imax^cAMP is the current induced by saturating cGMP divided by the current induced by saturating cAMP. Data (mean±standard deviation of three experiments) were obtained from excised membrane patches using standard patch clamp techniques.
To assess the cyclic nucleotide sensitivity of different CNG channel constructs, excised, inside-out patch recordings were made at room temperature (20-21° C.) using an Axopatch-200A patch clamp amplifier (Axon Instruments Inc.). Pipettes were pulled from borosilicate glass and heat polished. Pipettes were lowered onto the cells and gigaohm seals were formed. Patches were excised by shearing cells from the pipette with a jet of liquid. Ionic currents were elicited by 250 ms pulses to membrane potentials of +50 and −50 mV from a holding potential of 0 mV. Current records were sampled at five times the filter setting and stored on an IBM compatible computer. Records were corrected for errors due to series resistance (pipette resistance was 4.1 ±0.1 MΩ). Both the pipette and bath solutions contained (mM): 130 NaCl, 2 HEPES, 0.02 EDTA, and 1 EGTA, pH 7.6. Cyclic nucleotide-induced currents were obtained from the difference between currents in the presence and absence of cyclic nucleotides. Dose response curves for cAMP and cGMP were obtained at +50 and −50 mV in the same patch. The effects of the modifications were assessed using the Hill equation, I/Imax=[cNMP]^N/([cNMP]^N+K1/2^N), where I/Imax is the fraction of maximal current, cNMP represents cyclic nucleotide, K1/2 is the concentration that gives half-maximal current, and N is the Hill coefficient, an index of cooperativity. K1/2 and N for cAMP were 36±5 μM, 10±2 μM, 1.0±0.3 μM, and […] for WT, E583M, C460/E583M, and Δ61-90/C460W/E583M channels, respectively (See, Rich et al., J. Gen. Physiol. [2001], supra).
The cyclic nucleotide sensitivity of the C460W/E583M CNG channel was assessed in excised, inside-out patches as known in the art (See, Rich et al. [2001], supra). K1/2 and N were 1.1±0.3 μM and 2.1±0.4 at +50 mV; and 1.0±0.3 μM and 2.0 ±0.3 at −50 mV (n=11). With these values, the cAMP concentration could be calculated from currents measured in perforated patch experiments (Rich et al. Proc. Natl. Acad. Sci. [2001], supra).

`COc1cc2c(cc1OC)-c1c/c(=N\c3c(C)cc(C)cc3C)n(C)c(=O)n1CC2` [Trequinsin]: the half-maximal inhibitory concentration (IC50) in the experiment with PDE III was 0.0003 µM; on PDE II it was 0.5 to 2 µM. For the same molecule, the “d(ΔF/F0)/dt” value in experiment [1] stood at 0 s⁻¹.

B1: Δ61-90/C460W/E583M: modified rat olfactory cyclic nucleotide-gated ion channel containing the Δ61-90/C460W/E583M mutation, SEQ ID NO:7 (protein, listed as Rattus norvegicus)
chain: MMTEKSNGVKSSPANNHNHHPPPSIKANGKDDHRAGSRPQSVAADDDTSPELQRLAEMDTPRPDSFLERFRGPELQTVTTHQGDDKGGKDGEGKGTKKKFELFVLDPAGDWYYRWLFVIAMPVLYNWCLLVARACFSDLQRNYFVVWLVLDYFSDTVYIADLIIRLRTGFLEQGLLVKDPKKLRDNYIHTLQFKLDVASIIPTDLIYFAVGIHSPEVRFNRLLHFARMFEFFDRTETRTSYPNIFRISNLVLYILVIIHWNACIYYVISKSIGFGVDTWVYPNITDPEYGYLAREYIYCLYWSTLTLTTIGETPPPVKDEEYLFVIFDFLIGVLIFATIVGNVGSMISNMNATRAEFQAKIDAVKHYMQFRKVSKDMEAKVIKWFDYLWTNKKTVDEREVLKNLPAKLRAEIAINVHLSTLKKVRIFQDWEAGLLVELVLKLRPQVFSPGDYICRKGDIGKEMYIIKEGKLAVVADDGVTQYALLSAGSCFGEISILNIKGSKMGNRRTANIRSLGYSDLFCLSKDDLMEAVTEYPDAKKVLEERGREILMKMGLLDENEVAASMEVDVQEKLEQLETNMDTLYTRFARLLAEYTGAQQKLKQRITVLETKMKQNHEDDYLSDGINTPEPTAAE
With B1, in experiment [2], the “forskolin concentration at which delay and rate of Ca2+ influx saturated” value stood at 20 µM. The figures for the “Imax^cGMP/Imax^cAMP” value in experiment [3] (+50 mV) and in experiment [3] (−50 mV) were 0.16 ± 0.08 and 0.09 ± 0.06, respectively. In addition, in experiment [3] (excised patches), the “current elicited by saturating cGMP as % of the current elicited by saturating cAMP” value is 16% and < 20%.

In general, IC50 refers to the point on the concentration scale where inhibition reaches its midpoint.
